# B1: mouse secretagogin [mouse] / helix-b of the Habc domain of mouse syntaxin-4 [mouse] (parent complex)
# chain 1: MDNARRKTPARLDAACFWQIWQRFDKEEKGYIRETELDAFFDHLLAKSGTEDTLMEENVQKVKEQLMTSHNVSKEGRILMKELASMFLSEDENFLLFFRLETPLDNSVEFMQIWRKYDADSSGFISAAELCNFLRDLFLHHKKNISEAELEEYTSTMMKIFDKNKDGRLDLNDLARILALQENFLLQFKMDASSTEERKRDFEKIFAHYDVSKTGALEGPEVDGFVKDMMELVQPSISGVDLDKFREILLRHCDVNKDGKIQKSELALCLGLKINP
# chain 2: TPLPEESMKQGLQNLREEIKQLGREVRAQLKAIEPQKE
# Variants of: B1
# Test: ITC
row,Kd,Variant
1,16.2 µM,chain 1 L270A
